The source of these data is publication PMC7397094.

The target in the experiment is human recombinant RetGC1 (retinal membrane guanylyl cyclase 1) (human) (UniProt Q02846).
Sequence of UniProt Q02846 (Q02846 52-1103): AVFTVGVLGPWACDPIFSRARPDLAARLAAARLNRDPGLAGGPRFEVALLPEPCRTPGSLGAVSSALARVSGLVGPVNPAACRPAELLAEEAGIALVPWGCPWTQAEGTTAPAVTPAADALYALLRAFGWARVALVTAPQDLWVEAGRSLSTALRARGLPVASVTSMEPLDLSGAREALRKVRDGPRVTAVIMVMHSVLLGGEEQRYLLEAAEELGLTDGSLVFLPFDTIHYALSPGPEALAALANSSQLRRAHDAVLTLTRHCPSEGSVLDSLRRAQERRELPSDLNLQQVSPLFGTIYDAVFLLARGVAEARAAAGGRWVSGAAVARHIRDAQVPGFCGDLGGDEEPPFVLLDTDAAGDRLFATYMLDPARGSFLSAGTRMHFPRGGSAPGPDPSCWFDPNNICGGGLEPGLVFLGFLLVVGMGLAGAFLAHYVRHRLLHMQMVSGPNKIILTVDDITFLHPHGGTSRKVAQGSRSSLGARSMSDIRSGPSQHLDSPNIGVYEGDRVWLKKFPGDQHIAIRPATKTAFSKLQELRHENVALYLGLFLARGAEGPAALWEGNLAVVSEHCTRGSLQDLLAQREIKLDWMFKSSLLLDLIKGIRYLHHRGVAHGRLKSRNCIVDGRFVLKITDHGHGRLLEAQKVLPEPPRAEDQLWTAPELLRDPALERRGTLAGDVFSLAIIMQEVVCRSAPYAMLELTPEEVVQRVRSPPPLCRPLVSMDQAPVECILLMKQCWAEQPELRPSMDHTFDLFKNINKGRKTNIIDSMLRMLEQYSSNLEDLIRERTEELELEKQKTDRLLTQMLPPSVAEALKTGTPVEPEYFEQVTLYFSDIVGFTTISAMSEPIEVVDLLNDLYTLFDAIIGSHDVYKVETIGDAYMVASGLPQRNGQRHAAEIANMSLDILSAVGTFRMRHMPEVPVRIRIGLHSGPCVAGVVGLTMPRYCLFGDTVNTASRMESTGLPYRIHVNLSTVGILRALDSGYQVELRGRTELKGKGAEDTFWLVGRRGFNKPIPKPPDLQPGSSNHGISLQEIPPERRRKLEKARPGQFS

For “RD3 50AVRK53→50KAIE53 (from UniProt Q7Z3Z2 1-195) (natural protein)”, the RetGC1 activity left with 100 nM RD3, % of that without RD3 (1.5 uM GCAP1) was 12.4%.

For “RD3 178PPP180→178AAA180 (from UniProt Q7Z3Z2 1-195) (natural protein)”, the RetGC1 activity left with 100 nM RD3, % of that without RD3 (1.5 uM GCAP1) stood at 8.5%. “RD3 M24D (from UniProt Q7Z3Z2 1-195) (natural protein)”: the RetGC1 activity left with 100 nM RD3, % of that without RD3 (1.5 uM GCAP1) was found to be 10.9%.

With “RD3 T66K (from UniProt Q7Z3Z2 1-195) (natural protein)”, the RetGC1 activity left with 100 nM RD3, % of that without RD3 (1.5 uM GCAP1) stood at 7.3%. As for “RD3 A64R (from UniProt Q7Z3Z2 1-195) (natural protein)”, the RetGC1 activity left with 100 nM RD3, % of that without RD3 (1.5 uM GCAP1) is 15%. For “RD3 R68D (from UniProt Q7Z3Z2 1-195) (natural protein)”, the RetGC1 activity left with 100 nM RD3, % of that without RD3 (1.5 uM GCAP1) is 12.4%. “RD3 I76R (from UniProt Q7Z3Z2 1-195) (natural protein)”: the RetGC1 activity left with 100 nM RD3, % of that without RD3 (1.5 uM GCAP1) amounted to 7.5%. Turning to “RD3 L98Y (from UniProt Q7Z3Z2 1-195) (natural protein)”, the RetGC1 activity left with 100 nM RD3, % of that without RD3 (1.5 uM GCAP1) came out at 9.9%. In the case of “RD3 C55D (from UniProt Q7Z3Z2 1-195) (natural protein)” it was 6.9%.

Turning to “RD3 V58Q (from UniProt Q7Z3Z2 1-195) (natural protein)”, the RetGC1 activity left with 100 nM RD3, % of that without RD3 (1.5 uM GCAP1) was determined as 16.7%. For the substance “RD3 Q123E/E124Q (from UniProt Q7Z3Z2 1-195) (natural protein)”, the RetGC1 activity left with 100 nM RD3, % of that without RD3 (1.5 uM GCAP1) was found to be 11.9%. Turning to “RD3 E41R (from UniProt Q7Z3Z2 1-195) (natural protein)”, the RetGC1 activity left with 100 nM RD3, % of that without RD3 (1.5 uM GCAP1) turned out to be 12.6%. Under “RD3 E108K (from UniProt Q7Z3Z2 1-195) (natural protein)” stands 7.1%. Regarding “RD3 L144W (from UniProt Q7Z3Z2 1-195) (natural protein)”, the RetGC1 activity left with 100 nM RD3, % of that without RD3 (1.5 uM GCAP1) stood at 7.3%. Consider “RD3 Q116Y (from UniProt Q7Z3Z2 1-195) (natural protein)”, for which the RetGC1 activity left with 100 nM RD3, % of that without RD3 (1.5 uM GCAP1) came to 10.8%. Take “RD3 Q112E/E113Q (from UniProt Q7Z3Z2 1-195) (natural protein)”: the RetGC1 activity left with 100 nM RD3, % of that without RD3 (1.5 uM GCAP1) is 9.2%. With “RD3 45RER47→45AAA47 (from UniProt Q7Z3Z2 1-195) (natural protein)”, the RetGC1 activity left with 100 nM RD3, % of that without RD3 (1.5 uM GCAP1) was 17.9%. Regarding “RD3 S143Y (from UniProt Q7Z3Z2 1-195) (natural protein)”, the RetGC1 activity left with 100 nM RD3, % of that without RD3 (1.5 uM GCAP1) turned out to be 9.1%. As for “RD3 E39R (from UniProt Q7Z3Z2 1-195) (natural protein)”, the RetGC1 activity left with 100 nM RD3, % of that without RD3 (1.5 uM GCAP1) came to 6.6%. “RD3 3L→S5 deletion (from UniProt Q7Z3Z2 1-195) (natural protein)”: the RetGC1 activity left with 100 nM RD3, % of that without RD3 (1.5 uM GCAP1) was 3.9%.

Consider “RD3 G35Y (from UniProt Q7Z3Z2 1-195) (natural protein)”, for which the RetGC1 activity left with 100 nM RD3, % of that without RD3 (1.5 uM GCAP1) is 5.5%.

Consider “RD3 P67G (from UniProt Q7Z3Z2 1-195) (natural protein)”, for which the RetGC1 activity left with 100 nM RD3, % of that without RD3 (1.5 uM GCAP1) was 11.3%. With “RD3 W142A (from UniProt Q7Z3Z2 1-195) (natural protein)”, the RetGC1 activity left with 100 nM RD3, % of that without RD3 (1.5 uM GCAP1) came to 7.9%. Under “RD3 147RGSL150→147GRLS150 (from UniProt Q7Z3Z2 1-195) (natural protein)” stands 9.6%; under “RD3 R119S (from UniProt Q7Z3Z2 1-195) (natural protein)”, 12%.

Regarding “RD3 P67D (from UniProt Q7Z3Z2 1-195) (natural protein)”, the RetGC1 activity left with 100 nM RD3, % of that without RD3 (1.5 uM GCAP1) amounted to 11%.

For the substance “RD3 E41A (from UniProt Q7Z3Z2 1-195) (natural protein)”, the RetGC1 activity left with 100 nM RD3, % of that without RD3 (1.5 uM GCAP1) turned out to be 10.3%. For the substance “RD3 R42E (from UniProt Q7Z3Z2 1-195) (natural protein)”, the RetGC1 activity left with 100 nM RD3, % of that without RD3 (1.5 uM GCAP1) was determined as 14.5%. On to “RD3 Y71E (from UniProt Q7Z3Z2 1-195) (natural protein)”, for which the RetGC1 activity left with 100 nM RD3, % of that without RD3 (1.5 uM GCAP1) turned out to be 16.4%. Take “RD3 L98R (from UniProt Q7Z3Z2 1-195) (natural protein)”: the RetGC1 activity left with 100 nM RD3, % of that without RD3 (1.5 uM GCAP1) was 5.9%. As for “RD3 T56H (from UniProt Q7Z3Z2 1-195) (natural protein)”, the RetGC1 activity left with 100 nM RD3, % of that without RD3 (1.5 uM GCAP1) turned out to be 9.2%.

Take “RD3 132EEE134→132QQQ134 (from UniProt Q7Z3Z2 1-195) (natural protein)”: the RetGC1 activity left with 100 nM RD3, % of that without RD3 (1.5 uM GCAP1) is 11.8%. For “RD3 T18D/R19A (from UniProt Q7Z3Z2 1-195) (natural protein)”, the RetGC1 activity left with 100 nM RD3, % of that without RD3 (1.5 uM GCAP1) is 14.9%.

In the case of “RD3 E127R/R128E (from UniProt Q7Z3Z2 1-195) (natural protein)”, the RetGC1 activity left with 100 nM RD3, % of that without RD3 (1.5 uM GCAP1) worked out at 10.1%.

In the case of “RD3 P90A (from UniProt Q7Z3Z2 1-195) (natural protein)”, the RetGC1 activity left with 100 nM RD3, % of that without RD3 (1.5 uM GCAP1) was found to be 24.2%.

Turning to “RD3 T70R (from UniProt Q7Z3Z2 1-195) (natural protein)”, the RetGC1 activity left with 100 nM RD3, % of that without RD3 (1.5 uM GCAP1) came out at 8.2%.

In the case of “RD3 186SMP188→186PRS188 (from UniProt Q7Z3Z2 1-195) (natural protein)”, the RetGC1 activity left with 100 nM RD3, % of that without RD3 (1.5 uM GCAP1) worked out at 12.7%. “RD3 S91Y (from UniProt Q7Z3Z2 1-195) (natural protein)”: the RetGC1 activity left with 100 nM RD3, % of that without RD3 (1.5 uM GCAP1) worked out at 13.3%. Turning to “RD3 A22Y (from UniProt Q7Z3Z2 1-195) (natural protein)”, the RetGC1 activity left with 100 nM RD3, % of that without RD3 (1.5 uM GCAP1) came out at 14.4%. Take “RD3 P75R (from UniProt Q7Z3Z2 1-195) (natural protein)”: the RetGC1 activity left with 100 nM RD3, % of that without RD3 (1.5 uM GCAP1) came to 10.7%. For “RD3 S20Y/P21R (from UniProt Q7Z3Z2 1-195) (natural protein)”, the RetGC1 activity left with 100 nM RD3, % of that without RD3 (1.5 uM GCAP1) was 11.5%. Turning to “RD3 S65Y (from UniProt Q7Z3Z2 1-195) (natural protein)”, the RetGC1 activity left with 100 nM RD3, % of that without RD3 (1.5 uM GCAP1) came out at 10.8%. Under “RD3 S69Y (from UniProt Q7Z3Z2 1-195) (natural protein)” stands 9%; under “RD3 137KLTRQ141→137QRKTL141 (from UniProt Q7Z3Z2 1-195) (natural protein)”, 8.6%.

Consider “RD3 171EDVERD176→171KKAKQR176 (from UniProt Q7Z3Z2 1-195) (natural protein)”, for which the RetGC1 activity left with 100 nM RD3, % of that without RD3 (1.5 uM GCAP1) came to 2.5%. Under “RD3 M31R (from UniProt Q7Z3Z2 1-195) (natural protein)” stands 6.6%; under “RD3 D83R (from UniProt Q7Z3Z2 1-195) (natural protein)”, 7.2%. Under “RD3 164SDIRT168→164RSDTI168 (from UniProt Q7Z3Z2 1-195) (natural protein)” stands 9.5%.
